Data published in the nanobody polyreactivity screen of Harvey et al. (2022).

Assay: yeast display, Sf9 membrane polyspecificity reagent, FACS + sequencing; frameworks hold sequencing errors
Summary of the method: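 Polyreactivity labels are assigned by the sorting gate from which each nanobody was recovered. The gates were low and high (top ~1%), set on anti-HA fluorescence for expression and streptavidin fluorescence for reagent binding. Before sorting, galactose-induced (36–48 hours) yeast display cells were stained for 1 hour at 4 °C with 10% biotinylated, detergent-solubilized Sf9 membrane reagent.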

Sequence	polyreactivity (PSR sort gate)
HVQLVESGGGLVQAGRSLRFSCAASGSIFLYNAMGWYRQAPGKERELVAAISKSGGSTYYADSVKGRFTISRDNAKNTVYLQMNSLKPEDTAVYYCAAGYGRRIRYCSEYDYWGQGTQVTVSS	low polyreactivity
QVHLVESGGGLVQAGGSLRLSCAACGSNLFVNTMGWYRQAPGKERELVAAISWIDGSTYYADSVKGRFTISRDNAKNSVYLHMNSLKPEDTAVYYCAASTYWREYDYWGQGTQVNVSS	low polyreactivity
QVQLVESGGGLVQAGGSLRLSCADSGRTFYINAMGWYRQAPGKERELVAAISSSGGITYYADSVKGRFTISRENAKNTVYLQMNSLKPEDTAVYYCNAPYVYSWHYDYWGQGTQVTVSS	low polyreactivity
QVQLVESGGGLVQAGGSLRLSCAASGSIFYFNAMGWYRQAPGKEMELVATIRSGDGRTYYADSVKGRFTISRDNAKNTVYLQMNSLKPEDTAVYYCNASRVVYRQAYLYGYDYWGQGTQVTVSS	low polyreactivity
QVQLVESGGGLVQAGGSLRLSCAASGRTFWSNAMGWYRQAPGKERELVATISSGGGNTYYADSVKGRFTISRDNAKNTVYLQMNSLKPEDTAVYYCAATKYRWTYAASFGYWGQGTQVTVSS	high polyreactivity
QVQLVESGGGLVQAGGSLRLSCAASGFIFVKYAIGWYRTAPGKERELVAAITTSGTGTFYADSVKGRFTISRDNAKNTVYLQMNSLKPEDTAVYYCNALGHPGDDWGQGTQVTVSS	low polyreactivity
QVQIVESGGGLVQAGGSLRLSCAASGSIFPAYAMGWYRQAPGKEREFVAAISGTGGITYYADSVKGRFTISRDNAKNTVYLQMNSLKPEDTAVYFCAAPVYNRDKHDYDYWGQGTQVTVSS	low polyreactivity
QVQLVESGGGLVQAGGSLRLSCAASGSTLRFYAMGWYRQAAGKERELVADITYRGGSTYYADSVKGRFTISRDNAKNTVYLQMNSLKPEDTAVDYCAKQRSYSSKFDYWGQGSQVTVSS	high polyreactivity
QVQLVESGGGLVQAGGSIRLSCAASGFTFRSYTMGWYRQAPGKESELVAAITSRGTSTYYADSVKGRFTIPRDNAKNAVYLQMNSLKPEDTAVYYCNADGTRYAGDDYWGQGTQVTVSS	high polyreactivity
QVQLVESGGGLVQAGGSLRLICAASGFIFSSNAMGWYRQAPGKERELVAAITRSGGSTYYADSVKGRFTISRDNAKNTVYLQMNSLKPEDTAVYYCNAYVWRSGYDYWGQGTQVTVSS	high polyreactivity
QVQLVESGGGLVQAGGSLRLSCAASGIIFRGNAMGWYRQAPGKERELVAAISKSGGRTYYADSVKGRFTISRDNAKNTVYLQMNSLKPEDTAVYYCAASYYAVGGYDYWGQGTQVTVSS	high polyreactivity
QVQLVESGGGLVQAGGSLRLSCASSGRIFFTNAMGWYRQAPGKERELVAAIRSSGGRTYYADSVKGRFTISRDNAKNTVYLQMNSLKPEDTAVYYCNVVDGRHISHYNYWGQGTQVTVSS	high polyreactivity
QVQLLESCGGLVQAGGSLRLSCAASGRIFSYYVMGWYRQAPGKERELVAAITSGGSTNYADSVKGRFTISRDNAKISVYLQLTSLKPVDTAVYYFNRAYTYINRLYGYWGQGTEVTVSS	high polyreactivity
QVQLVESGGGLVQAGGSLRLSCAASGSILGQNAMGWSRQAPGKEREWVAAIRSSGGSTYYADSVKGRFTISRDNAKNTVYLQMNSRNPEDTAVYYCADDYYTSADYVDYYYWGQGTQVTVSS	low polyreactivity
QVQLGESGGGLVQAGGSLRLSCAPSGSIFGYYSMGWYRQAPGKERELVATITLSDDSTYYAVSVKGRFTISRDNAKITVYLQMNSLKPEDTAVYYCAAVRITRYQWDRSVGSGDYWGQGTQVTVSS	high polyreactivity
QVQLVESGGGLVQAGGSLRLSCAASGRIFTQYTMGWYRQAPGKERELVAAINYSGGRTNYADSVKGRFTISRDIAKNTVYLQMNSLKPEDTAVYYCAAGYRRATYGYWGQGTQVTVSS	high polyreactivity

Sequence	polyreactivity (PSR sort gate)
QVQLVESGGGLVQAGGSLRLSCAASGSTFVRNDKGWYRQAPGTEREFVAAINGDGRTYYADSVKGRFTISRDNEKNTVYLQMNSLKPEDTAVYYCAADWKSSRSYSYEMDYWGQGTQVTVSS	low polyreactivity
QVQLVESGGGLVQAGGSLRLSCAASGRTFWYYDMGWYRQAPGKERELVATINNVGSTHYADSVKGRFTISRDNAKNNVYLQMNSLKPEDTSVYYCARASYGKMDYWGQGTQVTVSS	high polyreactivity
QVQLVESGGGLVQAGGSLRLSCAASGSTFYFYDMGWYRQAPGKERELVATIDDGGGSTYYADSVKGRFTISRDNAKNTVYLQMNSLKPEDTAVYYCAADYFVYPDDWYDYWGQGTQVTVSS	low polyreactivity
QVQLVESGGCLVQAGGSLRLSCAASGITFESNAMGWYRQAPGIEREFVAAISYDGGDTYYADSVKGRFTISRDNAKNTVYLEMTSLKTEDTAVFYCAAEPGWTMDYWGQGTQVTVSS	low polyreactivity
QVQLVESGGGLVQAGGSLRLSCAPSGRTFWAYAMGWYRQAPGKERELVAAITRSGTTTSYADSVKGRFTISRDNAKNTVYLQMNSLKPEDTAVYYCNARPIRVYINSAQHYDYWGQGTQVTVSS	high polyreactivity
QVQLVESGGGLVQAGGSLRLSCDASGSTFRANAMGWYRQAPGKECELVAAISQSGGITYYADSVKGRFTISRDNAKNTVYLQMNCLKPEDTAVYYCAAKGSYSYDVGGPVYQRTYGYWGQGTQVTVSS	high polyreactivity
QVQLVESGGGLVQAGGSLRLSCASSGNTFKYDAMGWYRQAPGKERELVAAITWNGARTYYADSVKGRFTISRDNANYTGYLQMNRLKAEVTAVYYCNARQGYRFDYWGQGTQVSVSS	high polyreactivity
QVQLVESGGGLVQAGGSLRLSCAASGRIFDGYAMGWYRQAPGKESELVATIDVSGGRTTYADSVKGRFTISRDNAKNTVYLQMNSLKPEDTAVYYCNVDYYWSSGGTDYDYWGQGTQVTVSS	low polyreactivity
QVQLVESGGGLVQAGGSLRLSCAASGNTFVPYVMGWYRQAHGKERELVAAISRRGGSTRYADSVKGRFTISRDNAKNTVYLQMNSLKPEDTAVYYCAADGYVFALQRSRGVDFGYEYWGQGTQGTVSS	high polyreactivity
QVQLVESGGGLVQAGGSLRLSCAASGRTFFDYVMGWYRQAPGKERELVAAISTSGTSTYYADSVKGRFTISRDNAKNTVYLHMNSLKPEDTAVYYCAAGNYLYSYGYGYWGQGTQVTVSS	high polyreactivity
QVQLVESGGGLVQAGGSLRLSCAASGFTFRINAMGWYRQAPGKERELVAAISWSGGSTYYADSVKGRFTISRDNAKNTVYLQMNSLKPEDTAFYYCNKVQSSRYRSQRTFQYGYWGQGTQVTVSS	high polyreactivity
QVQLVESGGGLVQAGGSLRLSCAASGYTFDGYAMGWYRPAPGKERELVAAINSGGGTYYADSVKGRFTISRDYAKNTVYLQMNSLIPDDTAVYYCNKKAYRKTGLDYWGQGTQVTVSS	low polyreactivity
QVQLVESGGGLVQAGGSLRLSCAASGRTFNYYAMAWYRQAPGKERELVAAISYSGGSTYYADSVKGRFTISRDNAKNTVYLQMNSLKPEDTAVYYCAVVIKWRSSYVYSYYYWGQGTQVTVSS	high polyreactivity
QVKLVESGGGLVQAGGSLRLSCAASGFTFANYAMGWYRQAPGKEREFVAAITKGGGSTNYADSVKGRFTISRDNAKNTVYLQMNSLKPEDTAVYYCNADYFVWYIGRVFSRYGYWGQGTQVTVSS	low polyreactivity
QVQLVESGGGLVQAGGSLRLSCAASGRIFPYYAMGWYRQAPGKERELVATITWRGGITYYADSVKGRFTISRDNAKNTVYLQMNSLKPEDTAVYYCAVRKVYRSSFDYWGQGTQVTVSS	high polyreactivity
